Measurements taken from paper PMC10011135, “Molecular identification and physiological functional analysis of NtNRT1.1B that mediated nitrate long-distance transport and improved plant growth when overexpressed in tobacco” (Frontiers in Plant Science, 2023).

Substrate: O=[N+]([O-])O
Experiment: cells, lysate or membranes
Set-up: species or system Nicotiana tabacum
Conditions: whole roots of 2-day N-starved tobacco plants (wild-type K326 background subtracted); 5–500 μM nitrate; labelled compound (15N)

B1: NtNRT1.1B (Nicotiana tabacum) (protein)
chain: MALPETQQDSKALPDAWDYKGRPALRSSSGGWASGAMILGVEAVERLTTLGIAVNLVTYLTGTMHLGNATAANNVTNFLGTSFMLTLFGGFVADTFLGRYLTIGIFATVQAMGVTILTISTIIPSLRPPKCEQVGSSSCIPANSKQLMVLYIALYMTALGTGGLKSSVSGFGTDQFDDADKKEKGQMIKFFDWFFFFINVGSLGAVTVLVYIQDNLGREWGYGICACAIVIGLVVFLSGTRKYRFKKLVGSPLTQIASVIVAAWKKRHLELLSDSSLLFEIDDIFGEGNKKNKQKLPHSKEYRFLDKAAIKEDHDLESNGTNVVINKWKLATLTDVEEVKLLIRMLPTWATTIMFWTVYAQMTTFSVSQATTMDRHIGTFEIPPASLTVFFVGSILLTVIFYDRVIVPICRRFMNKPHGLTPLQRIFTGLVLSILAMIAAALTEVKRLKVAHLHGLTNDANATIPLSVFWLVPQFLLVGAGEAFTYIGQLDFFLRECPKGMKTMSTGLFLSTLALGFFFSSILVTIVHVVTGTTNPWLADNLNQGRLYDFYWLLAILSVLNLMFFLYFSRKYVYKEKRLAEMGIELEDDGPVCH
notes: full-length untagged ORF (1,785 bp, 594 residues) under CaMV 35S promoter, overexpressed in tobacco K326 (line L1); formerly named NtNRT1.2 (Liu et al., 2018)
With B1 the Km was 29.05 ± 3.34 µM.
